Test results published in article PMC6642127.

Biological target: P8 carrier peptide (Influenza H5N1)
Assay: AUC

Substance: P8 carrier peptide
- percent of the peptide as trimers: 70%
- stoichiometry N: 3
